This is an account of results in PMC10397247.

One experiment addresses T1, 4H953-bA.
T1 chain: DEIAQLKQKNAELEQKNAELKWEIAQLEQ
The experiment in a line: two-hybrid library CCNG1.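 Also: natural log of median RNA to DNA barcode read ratio; higher means stronger binding.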

A further experiment has as its target T2, 4H754-bA.
T2 chain: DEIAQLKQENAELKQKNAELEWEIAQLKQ
Kind of experiment: two-hybrid library CCNG1.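 Also: natural log of median RNA to DNA barcode read ratio; higher means stronger binding.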

The next experiment deals with T3, 4H454-bA.
T3 chain: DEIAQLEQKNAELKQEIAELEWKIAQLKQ
Kind of experiment: two-hybrid library CCNG1.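 Also: natural log of median RNA to DNA barcode read ratio; higher means stronger binding.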

For the next experiment, the target named is T4, 4H72-bA.
T4 chain: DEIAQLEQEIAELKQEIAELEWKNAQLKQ
Kind of experiment: two-hybrid library CCNG1.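 Also: natural log of median RNA to DNA barcode read ratio; higher means stronger binding.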

A further experiment deals with T5, 4H568-bA.
T5 chain: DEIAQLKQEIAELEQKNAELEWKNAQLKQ
Kind of experiment: two-hybrid library CCNG1.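 Also: natural log of median RNA to DNA barcode read ratio; higher means stronger binding.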

The next experiment concerns the target T6, 4H883-bA.
T6 chain: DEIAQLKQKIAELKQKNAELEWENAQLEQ
The experiment in a line: two-hybrid library CCNG1.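 Also: natural log of median RNA to DNA barcode read ratio; higher means stronger binding.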

The target in a further experiment is T7, 4H3855-bA.
T7 chain: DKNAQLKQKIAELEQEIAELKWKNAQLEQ
Kind of experiment: two-hybrid library CCNG1.

The target in the next experiment is T8, 4H3782-bA.
T8 chain: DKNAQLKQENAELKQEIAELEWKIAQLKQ
Kind of experiment: two-hybrid library CCNG1.

Another experiment addresses T9, 4H4001-bA.
T9 chain: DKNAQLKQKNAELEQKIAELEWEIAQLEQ
The experiment in a line: two-hybrid library CCNG1.

A further experiment addresses T10, P9A-bA.
T10 chain: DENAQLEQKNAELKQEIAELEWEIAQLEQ
The experiment in a line: two-hybrid library CCNG1.

Another experiment deals with T11, 4H338-bA.
T11 chain: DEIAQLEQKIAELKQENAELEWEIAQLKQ
The experiment in a line: two-hybrid library CCNG1.

For a further experiment, the target named is T12, 4H918-bA.
T12 chain: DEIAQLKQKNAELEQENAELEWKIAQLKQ
The experiment in a line: two-hybrid library CCNG1.

In a further experiment the target is T13, 4H908-bA.
T13 chain: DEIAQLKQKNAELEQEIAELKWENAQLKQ
Kind of experiment: two-hybrid library CCNG1.

A further experiment concerns the target T14, 4H797-bA.
T14 chain: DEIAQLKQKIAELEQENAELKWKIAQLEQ
The experiment in a line: two-hybrid library CCNG1.

A further experiment has as its target T15, 4H3354-bA.
T15 chain: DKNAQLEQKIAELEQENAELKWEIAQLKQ
The experiment in a line: two-hybrid library CCNG1.

The target in another experiment is T16, 4H607-bA.
T16 chain: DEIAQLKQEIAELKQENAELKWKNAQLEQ
Kind of experiment: two-hybrid library CCNG1.

In a further experiment the target is T17, 4H967-bA.
T17 chain: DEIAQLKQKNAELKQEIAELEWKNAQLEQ
The experiment in a line: two-hybrid library CCNG1.

The target in another experiment is T18, 4H717-bA.
T18 chain: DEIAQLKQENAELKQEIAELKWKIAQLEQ
The experiment in a line: two-hybrid library CCNG1.

The next experiment deals with T19, 4H687-bA.
T19 chain: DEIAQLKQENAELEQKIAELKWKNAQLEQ
The experiment in a line: two-hybrid library CCNG1.

The next experiment concerns the target T20, 4H3427-bA.
T20 chain: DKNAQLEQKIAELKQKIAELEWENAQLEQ
The experiment in a line: two-hybrid library CCNG1.

A further experiment has as its target T21, APC3354-AA.
T21 chain: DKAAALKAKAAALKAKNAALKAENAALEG
The experiment in a line: two-hybrid library CCmax. The settings on record: mean of both orientations.

The target in the next experiment is T22, APC5009-AA.
T22 chain: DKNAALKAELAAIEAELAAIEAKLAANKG
The experiment in a line: two-hybrid library CCmax. The settings on record: mean of both orientations.

Another experiment concerns the target T23, APC5531-AA.
T23 chain: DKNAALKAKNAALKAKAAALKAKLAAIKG
The experiment in a line: two-hybrid library CCmax. Particulars: mean of both orientations.

Another experiment concerns the target T24, APC8401-AA.
T24 chain: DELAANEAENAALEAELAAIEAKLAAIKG
Kind of experiment: two-hybrid library CCmax. The settings on record: mean of both orientations.

A further experiment has as its target T25, APC4100-AA.
T25 chain: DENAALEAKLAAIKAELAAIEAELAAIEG
Kind of experiment: two-hybrid library CCmax. Particulars: mean of both orientations.

In the next experiment the target is T26, APC9182-AA.
T26 chain: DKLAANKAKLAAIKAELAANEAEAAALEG
Kind of experiment: two-hybrid library CCmax. The settings on record: mean of both orientations.

In a further experiment the target is T27, APC3323-AA.
T27 chain: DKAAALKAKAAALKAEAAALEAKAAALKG
Kind of experiment: two-hybrid library CCmax. The settings on record: mean of both orientations.

In the next experiment the target is T28, APC3265-AA.
T28 chain: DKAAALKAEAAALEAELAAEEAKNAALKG
The experiment in a line: two-hybrid library CCmax. The settings on record: mean of both orientations.

The target in another experiment is T29, APC7524-AA.
T29 chain: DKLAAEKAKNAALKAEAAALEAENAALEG
The experiment in a line: two-hybrid library CCmax. Particulars: mean of both orientations.

In the next experiment the target is T30, APC8516-AA.
T30 chain: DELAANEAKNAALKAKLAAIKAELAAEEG
The experiment in a line: two-hybrid library CCmax. Particulars: mean of both orientations.

The next experiment deals with T31, APC2811-AA.
T31 chain: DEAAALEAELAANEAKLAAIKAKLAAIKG
Kind of experiment: two-hybrid library CCmax.

A further experiment addresses T32, APC542-AA.
T32 chain: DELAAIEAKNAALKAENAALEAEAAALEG
The experiment in a line: two-hybrid library CCmax. The settings on record: mean of both orientations.

The target of another experiment is T33, APC3881-AA.
T33 chain: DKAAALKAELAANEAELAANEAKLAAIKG
The experiment in a line: two-hybrid library CCmax. Particulars: mean of both orientations.

The target of a further experiment is T34, APC9291-AA.
T34 chain: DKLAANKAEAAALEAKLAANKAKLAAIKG
The experiment in a line: two-hybrid library CCmax. Particulars: mean of both orientations.

A further experiment concerns the target T35, APC2981-AA.
T35 chain: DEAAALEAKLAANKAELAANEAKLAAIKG
Kind of experiment: two-hybrid library CCmax. Particulars: mean of both orientations.

The next experiment has as its target T36, APC6088-AA.
T36 chain: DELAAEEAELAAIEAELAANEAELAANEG
The experiment in a line: two-hybrid library CCmax. Particulars: mean of both orientations.

The next experiment concerns the target T37, APC9806-AA.
T37 chain: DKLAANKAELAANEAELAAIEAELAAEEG
Kind of experiment: two-hybrid library CCmax. Particulars: mean of both orientations.

Another experiment concerns the target T38, APC9141-AA.
T38 chain: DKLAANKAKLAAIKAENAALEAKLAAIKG
The experiment in a line: two-hybrid library CCmax. Particulars: mean of both orientations.

The target of another experiment is T39, APC4336-AA.
T39 chain: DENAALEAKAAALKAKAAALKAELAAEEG
Kind of experiment: two-hybrid library CCmax. Particulars: mean of both orientations.

For DKNAQLEQKIAELEQENAELKWEIAQLKQ [4H3354-bA], the interaction score with 4H953-bA was -0.675; in the experiment with 4H754-bA it was -0.511; with 4H454-bA, -1.24; in the experiment with 4H72-bA, -0.822; in the experiment with 4H568-bA it was -1.07; with 4H883-bA it was -0.0506. In addition, the interaction score in the experiment with 4H3855-bA was -0.492; with 4H3782-bA it was -0.851; with 4H4001-bA it was -0.362; with P9A-bA, -1.59; in the experiment with 4H338-bA, 0.149; in the experiment with 4H918-bA, -0.0912. For the same molecule, the interaction score with 4H908-bA is -1.17; with 4H797-bA, -1.14; in the experiment with 4H3354-bA, 1.66; with 4H607-bA, -0.0475; with 4H967-bA it was -0.407; with 4H717-bA it was -0.712. Also, the interaction score with 4H687-bA is 0.42; with 4H3427-bA, -0.0236.

Regarding DEAAALEAELAANEAKLAAIKAKLAAIKG [APC2811-AA], the interaction score is -1.67 in the experiment with APC3354-AA; -0.812 with APC5009-AA; -1.88 in the experiment with APC5531-AA; -1.58 with APC8401-AA; 0.341 with APC4100-AA; -1.35 in the experiment with APC9182-AA. For the same molecule, the interaction score with APC3323-AA was -1.68; with APC3265-AA, -1.3; in the experiment with APC7524-AA it was -1.75; with APC8516-AA, -1.65; with APC2811-AA, -0.415; with APC542-AA, -1.59. Moreover, the interaction score with APC3881-AA is -1.68; with APC9291-AA, -1.78; in the experiment with APC2981-AA, -1.57; in the experiment with APC6088-AA, -1.51; with APC9806-AA, -1.74; with APC9141-AA it was -1.29. The molecule also registered an interaction score with APC4336-AA of -1.61.
